Results as given in patent US20260250398A1.

Biological target: FZD/LRP
Experiment: cell-based or functional assay

TOPFLASH % Wnt Maxima: 100 % Wnt Maxima | TOPFLASH EC50: 6 nM
Substance: Wnt3a, recombinantly produced ligand
